Reference: patent US20240167007A1 (RHEINISCHE FRIEDRICH WILHELMS UNIVERSIT T BONN, published 2024)

Experiments:
[1] = target: mannose 6-phosphate (M6P) receptor (MPR300) on human hepatoma cells (HuH7) (human), P11717; test: cell-based or functional assay
[2] = target: the molecule itself; test: size exclusion chromatography (Superdex 200), pH 7.0; self-association
Procedure: The indicated hASA-variants were separated by size exclusion chromatography using a Superdex 200 column (Amersham Pharmacia) linked to an Äkta FPLC system (GE Healthcare). The buffer was 150 mM NaCl, 20 mM Bis-Tris, pH 7.0. Fractions (0.5 ml) were collected and analysed on ASA activity using p-nitrocatechol sulfate as a substrate. Elution profiles of the four indicated hASA-variants are superimposed. While wildtype hASA presents as a dimer at neutral pH, E424A-mutants form octamers.

mannose 6-phosphate (M6P) receptor (MPR300) on human hepatoma cells (HuH7) (human), P11717, sequence (P11717 41-2491): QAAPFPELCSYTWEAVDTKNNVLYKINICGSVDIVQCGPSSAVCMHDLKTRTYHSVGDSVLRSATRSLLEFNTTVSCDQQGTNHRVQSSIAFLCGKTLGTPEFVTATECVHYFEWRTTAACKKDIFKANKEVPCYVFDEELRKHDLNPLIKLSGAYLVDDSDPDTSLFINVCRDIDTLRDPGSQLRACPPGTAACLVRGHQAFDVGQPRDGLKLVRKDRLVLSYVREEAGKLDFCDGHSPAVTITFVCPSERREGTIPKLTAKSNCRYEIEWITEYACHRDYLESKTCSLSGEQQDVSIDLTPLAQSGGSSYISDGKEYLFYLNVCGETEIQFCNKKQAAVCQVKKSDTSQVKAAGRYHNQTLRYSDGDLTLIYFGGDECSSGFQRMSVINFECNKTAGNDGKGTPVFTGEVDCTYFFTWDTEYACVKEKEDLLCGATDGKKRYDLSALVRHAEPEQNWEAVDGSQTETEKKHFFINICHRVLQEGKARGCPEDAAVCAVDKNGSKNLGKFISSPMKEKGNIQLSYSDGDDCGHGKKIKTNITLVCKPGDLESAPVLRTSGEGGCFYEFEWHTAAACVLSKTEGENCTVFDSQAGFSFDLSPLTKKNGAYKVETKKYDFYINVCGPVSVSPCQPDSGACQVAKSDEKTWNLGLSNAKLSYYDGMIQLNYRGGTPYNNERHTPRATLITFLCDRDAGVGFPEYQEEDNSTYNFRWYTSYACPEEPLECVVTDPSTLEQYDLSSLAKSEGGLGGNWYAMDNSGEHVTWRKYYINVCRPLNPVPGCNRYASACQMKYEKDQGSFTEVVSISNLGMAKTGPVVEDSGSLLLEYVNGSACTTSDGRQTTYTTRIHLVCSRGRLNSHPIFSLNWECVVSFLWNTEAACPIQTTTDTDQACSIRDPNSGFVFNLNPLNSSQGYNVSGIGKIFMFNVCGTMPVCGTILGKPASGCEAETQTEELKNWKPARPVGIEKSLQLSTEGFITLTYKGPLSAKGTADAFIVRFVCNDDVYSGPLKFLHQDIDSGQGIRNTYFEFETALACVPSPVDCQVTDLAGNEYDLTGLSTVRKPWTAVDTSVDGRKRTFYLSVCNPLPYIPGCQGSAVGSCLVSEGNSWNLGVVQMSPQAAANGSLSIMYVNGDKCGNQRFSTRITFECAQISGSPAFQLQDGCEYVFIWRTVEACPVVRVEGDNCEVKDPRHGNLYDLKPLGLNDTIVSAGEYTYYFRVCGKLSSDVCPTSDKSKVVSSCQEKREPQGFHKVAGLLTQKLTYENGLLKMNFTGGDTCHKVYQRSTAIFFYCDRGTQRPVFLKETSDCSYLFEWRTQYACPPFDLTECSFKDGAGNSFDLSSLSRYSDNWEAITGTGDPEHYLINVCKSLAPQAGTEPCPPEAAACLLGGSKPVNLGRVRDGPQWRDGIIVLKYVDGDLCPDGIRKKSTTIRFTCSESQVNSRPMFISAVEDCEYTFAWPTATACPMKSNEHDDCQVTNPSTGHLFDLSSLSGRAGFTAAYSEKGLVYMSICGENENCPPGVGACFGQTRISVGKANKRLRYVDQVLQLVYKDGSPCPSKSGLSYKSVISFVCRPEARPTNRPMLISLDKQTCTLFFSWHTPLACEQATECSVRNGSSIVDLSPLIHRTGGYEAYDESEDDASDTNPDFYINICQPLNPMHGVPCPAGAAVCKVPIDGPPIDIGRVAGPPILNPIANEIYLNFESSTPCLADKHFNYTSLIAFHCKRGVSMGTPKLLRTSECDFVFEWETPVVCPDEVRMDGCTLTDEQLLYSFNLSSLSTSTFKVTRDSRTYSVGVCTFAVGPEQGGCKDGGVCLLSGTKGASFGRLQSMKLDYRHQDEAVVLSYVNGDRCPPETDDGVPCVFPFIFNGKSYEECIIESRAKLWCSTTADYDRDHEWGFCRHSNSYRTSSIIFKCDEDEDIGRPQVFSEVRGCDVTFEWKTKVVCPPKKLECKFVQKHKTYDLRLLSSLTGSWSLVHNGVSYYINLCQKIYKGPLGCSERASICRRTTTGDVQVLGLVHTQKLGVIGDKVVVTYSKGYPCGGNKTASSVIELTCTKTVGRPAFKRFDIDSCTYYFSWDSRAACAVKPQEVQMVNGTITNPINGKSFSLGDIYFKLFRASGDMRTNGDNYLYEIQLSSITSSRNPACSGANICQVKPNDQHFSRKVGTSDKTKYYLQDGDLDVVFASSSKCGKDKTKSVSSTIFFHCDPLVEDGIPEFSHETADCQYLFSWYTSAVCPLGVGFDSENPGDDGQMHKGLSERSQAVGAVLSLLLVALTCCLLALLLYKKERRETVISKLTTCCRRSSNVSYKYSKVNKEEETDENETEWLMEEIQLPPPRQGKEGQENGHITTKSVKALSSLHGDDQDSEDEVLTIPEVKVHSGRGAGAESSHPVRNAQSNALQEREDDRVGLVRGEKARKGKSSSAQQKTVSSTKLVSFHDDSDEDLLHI

Binder	uptake by the human hepatoma cell line HuH7, compared to wildtype hARSA (internalized enzyme by ELISA) [1]	binding result [2]
hARSA-mutant E424A, P15289 19-507 (enzyme) RPPNIVLIFADDLGYGDLGCYGHPSSTTPNLDQLAAGGLRFTDFYVPVSLCTPSRAALLTGRLPVRMGMYPGVLVPSSRGGLPLEEVTVAEVLAARGYLTGMAGKWHLGVGPEGAFLPPHQGFHRFLGIPYSHDQGPCQNLTCFPPATPCDGGCDQGLVPIPLLANLSVEAQPPWLPGLEARYMAFAHDLMADAQRQDRPFFLYYASHHTHYPQFSGQSFAERSGRGPFGDSLMELDAAVGTLMTAIGDLGLLEETLVIFTADNGPETMRMSRGGCSGLLRCGKGTTYEGGVREPALAFWPGHIAPGVTHELASSLDLLPTLAALAGAPLPNVTLDGFDLSPLLLGTGKSPRQSLFFYPSYPDEVRGVFAVRTGKYKAHFFTQGSAHSDTTADPACHASSSLTAHAPPLLYDLSKDPGENYNLLGGVAGATPEVLQALKQLQLLKAQLDAAVTFGPSQVARGEDPALQICCHPGCTPRPACCHCPDPHA	20%	
wildtype human arylsulfatase A (enzyme, Expressed in CHO cells and glycosylated; also called wildtype hARSA; wildtype hASA) RPPNIVLIFADDLGYGDLGCYGHPSSTTPNLDQLAAGGLRFTDFYVPVSLCTPSRAALLTGRLPVRMGMYPGVLVPSSRGGLPLEEVTVAEVLAARGYLTGMAGKWHLGVGPEGAFLPPHQGFHRFLGIPYSHDQGPCQNLTCFPPATPCDGGCDQGLVPIPLLANLSVEAQPPWLPGLEARYMAFAHDLMADAQRQDRPFFLYYASHHTHYPQFSGQSFAERSGRGPFGDSLMELDAAVGTLMTAIGDLGLLEETLVIFTADNGPETMRMSRGGCSGLLRCGKGTTYEGGVREPALAFWPGHIAPGVTHELASSLDLLPTLAALAGAPLPNVTLDGFDLSPLLLGTGKSPRQSLFFYPSYPDEVRGVFAVRTGKYKAHFFTQGSAHSDTTADPACHASSSLTAHEPPLLYDLSKDPGENYNLLGGVAGATPEVLQALKQLQLLKAQLDAAVTFGPSQVARGEDPALQICCHPGCTPRPACCHCPDPHA		binds
